“Also recorded” adds a separate entry of the source. One block for each molecule: values may come before it.
Legend:
[1] = biological target: T1, Sort1 (Mus musculus, UniProt Q6PHU5); test: Affinity chromatography pull-down of Sort1 from brain lysate; type: binding; details: wild type brain lysate or extract
T1 construct: Brain lysate was prepared from mouse brain by homogenization in RIPA buffer; from tissue; host or cells: mouse brain lysate (RIPA buffer)
T1 sequence (Q6PHU5 74-825): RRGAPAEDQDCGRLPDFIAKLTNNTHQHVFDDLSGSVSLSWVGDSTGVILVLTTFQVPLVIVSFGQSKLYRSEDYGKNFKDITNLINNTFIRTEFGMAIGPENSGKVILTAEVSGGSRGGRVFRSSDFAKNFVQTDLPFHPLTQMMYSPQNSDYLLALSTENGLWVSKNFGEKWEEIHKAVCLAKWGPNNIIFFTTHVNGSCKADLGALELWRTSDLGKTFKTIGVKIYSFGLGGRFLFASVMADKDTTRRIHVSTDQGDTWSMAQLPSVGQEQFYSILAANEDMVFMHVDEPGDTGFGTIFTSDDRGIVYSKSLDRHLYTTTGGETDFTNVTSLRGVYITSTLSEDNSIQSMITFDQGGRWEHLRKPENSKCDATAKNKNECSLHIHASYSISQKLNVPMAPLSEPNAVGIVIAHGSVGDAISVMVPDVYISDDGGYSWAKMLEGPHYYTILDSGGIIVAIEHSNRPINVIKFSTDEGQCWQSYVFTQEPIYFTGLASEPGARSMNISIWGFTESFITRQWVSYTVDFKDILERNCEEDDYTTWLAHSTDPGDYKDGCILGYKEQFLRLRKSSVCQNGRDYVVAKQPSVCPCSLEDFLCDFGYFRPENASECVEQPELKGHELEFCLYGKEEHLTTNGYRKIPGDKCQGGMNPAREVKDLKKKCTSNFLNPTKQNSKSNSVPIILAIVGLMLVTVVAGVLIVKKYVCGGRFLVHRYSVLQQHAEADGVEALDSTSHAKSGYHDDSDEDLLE
Protocol: For affinity chromatography, glutathione S-transferase (GST) fused to the C-terminal segment of PGRN (amino acids 495 to the end) was produced in E. coli as a 45 kDa protein and then purified on glutathione-sepharose resin. Brain lysate was prepared from mouse brain by homogenization in RIPA buffer and then incubated with the GST-PGRN containing resin. After washing, bound protein was eluted with SDS and analyzed by anti-sortilin immunoblot. […] Thus, it can be unexpectedly concluded from these studies that PGRN and sortilin interact in a ligand/receptor-type complex on the cell surface.

[2] = biological target: Rat (Sprague-Dawley) cortical neurons; test: AP-tagged ligand binding to cultured rat cortical neurons; details: saturation analysis, FIG. 1D; read-out: affinity of neuronal binding sites for PGRN
Protocol: (§1) Rat (Sprague-Dawley) cortical neurons were isolated from E18 embryos and cultured in vitro for 3-21 days. Cultures were maintained in Neurobasal-A medium supplemented with B27, GLUTAMAX™ (2 mM), sodium pyruvate (1 mM), penicillin, and streptomycin. The binding of 10 nM AP-PGRN or 10 nM AP was detected as a dark reaction product produced by alkaline phosphatase (AP). Binding was measured as follows. The AP tagged ligand (in NBA) was incubated with the cortical neurons for 1 hr at 4° C., washed three times with HBH buffer, fixed with formaldehyde, and after washing again with HBH the neurons were incubated in a 67° C. oven to inactivate the endogenous AP. The tagged AP was then visualized using AP substrate 5-bromo-4-chloro-3-indolyl phosphate/nitro blue tetrazolium, which results in a dark precipitate. […] The addition of 100 nM Flag-PGRN displaced 10 nM AP-PGRN (FIG. 1C, middle panel).

[3] = tested on: mouse E17 cortical neurons; test: AP-PGRN binding to mouse cortical neurons (wild type, sortilin +/- and -/-); details: 100 nM unlabeled competitor against 5 nM AP-PGRN, 1 hr preincubation
Protocol: as §1
Binding was measured according to the methods described above by preincubating 100 nM PGRN with the cortical neurons for 1 hr and using a 5 nM AP-PGRN and 100 nM untagged PGRN mixture. […]
Gene-targeted sortilin −/− and +/− mice from Anders Nykjaer, M.D., Ph.D., Aarhus University, Aarhus, Denmark, were used to obtain cultures of cortical neurons. The binding of 2 nM AP-PGRN to cortical neurons isolated from sortilin −/− (FIG. 3B, left panel) and +/− (FIG. 3B, right panel) mice was evaluated. […]

[4] = biological target: T2, sortilin-1 (Sort1; PGRN-R) (Mus musculus, UniProt Q6PHU5); test: AP-PGRN binding to COS-7 cells transfected with Sort1 cDNA
T2 construct: host or cells: COS-7 (ATCC No. CRL-1651)
T2 sequence (Q6PHU5 74-825): T1 sequence (Q6PHU5 74-825)
Protocol: as §1
To determine the molecular nature of the neuronal binding site of PGRN, expression cloning experiments utilizing AP-PGRN as a tagged ligand were conducted. COS-7 (ATCC No. CRL-1651) cells were transfected with expression vectors containing mouse cDNAs using FUGENE® 6 according to manufacturer's specifications (Roche). […]

[5] = tested on: cortical neurons from E18 rat embryo cerebral cortex; test: Apoptosis assay (cleaved caspase 3) in cortical neuron cultures; type: cell-based; details: 100 nM, 36 hours, vs vehicle; 7 days in vitro
Protocol: In order to examine the PGRN-Sort1 interaction and the effects of PGRN on cerebral cortical cultures, apoptosis assays were performed. Cultures of cortical neurons were established from E18 rat embryo cerebral cortex, as described above, and maintained for 7 days in vitro. Then, the cells were exposed to vehicle or 100 nM purified PGRN protein for 36 hours. The cultures were maintained as mentioned above, and Flag-PGRN diluted in PBS or PBS vehicle were incubated in the cultures for 36 h. Thereafter, the cells were fixed with FA 15 mts and stained with anti-cleaved caspase 3 antibody (Cell Signaling) to detect apoptotic cells (FIG. 6A; shown in white) and with DAPI to detect all nuclei (FIG. 6A; shown in gray). […] These finding may relate indirectly to one study of immortalized cells linking PGRN to caspase-mediated cleavage of TDP43 (Zhang, Y. J., et al., J. Neurosci. 27:10530-10534 (2007)).

[6] = tested on: Cortical neurons isolated from E18 rat embryos; test: Neurite outgrowth assay in cortical neurons; type: cell-based; details: 100 nM, 1 day in vitro, vs vehicle
Protocol: To further examine the PGRN-Sort1 interaction, neurite outgrowth assays were performed. Cortical neurons were isolated from E18 rat embryos and cultured for 1 day in vitro with or without 100 nM purified Flag-PGRN protein, as described above. Neurites were then visualized with an anti-Beta III tubulin (Promega) using an automated image acquisition. Neurite outgrowth analysis was done using ImageXpress (Molecular Devices), and average neurite length was calculated. […] Although this finding differs from a recent report (Van Damme, P., et al., J. Cell Biol. 181:37-41 (2008)), it is possible that cell survival is the primary action of PGRN, and any outgrowth effect is secondary.

[7] = biological target: T3, sortilin (Homo sapiens, UniProt Q99523); test: PGRN binding to sortilin of human origin; details: data not shown
T3 sequence (Q99523 78-831): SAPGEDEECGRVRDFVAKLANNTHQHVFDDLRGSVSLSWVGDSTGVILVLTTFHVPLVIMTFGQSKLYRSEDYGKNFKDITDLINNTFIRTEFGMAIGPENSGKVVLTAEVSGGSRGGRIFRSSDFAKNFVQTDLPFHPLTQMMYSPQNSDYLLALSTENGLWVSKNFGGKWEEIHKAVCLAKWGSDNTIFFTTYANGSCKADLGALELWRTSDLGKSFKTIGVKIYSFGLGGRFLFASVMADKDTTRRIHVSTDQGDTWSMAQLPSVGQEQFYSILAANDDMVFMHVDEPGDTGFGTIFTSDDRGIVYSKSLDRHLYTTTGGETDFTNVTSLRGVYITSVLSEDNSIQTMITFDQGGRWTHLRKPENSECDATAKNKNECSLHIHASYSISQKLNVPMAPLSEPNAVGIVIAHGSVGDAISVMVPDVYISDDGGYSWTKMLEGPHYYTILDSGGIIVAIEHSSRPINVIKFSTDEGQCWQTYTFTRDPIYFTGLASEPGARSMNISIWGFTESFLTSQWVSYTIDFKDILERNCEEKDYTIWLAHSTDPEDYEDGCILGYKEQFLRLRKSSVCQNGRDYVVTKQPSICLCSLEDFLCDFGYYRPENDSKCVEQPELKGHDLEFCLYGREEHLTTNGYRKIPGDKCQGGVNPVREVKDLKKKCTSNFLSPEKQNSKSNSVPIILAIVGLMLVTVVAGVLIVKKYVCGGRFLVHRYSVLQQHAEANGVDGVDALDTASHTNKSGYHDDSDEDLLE
Description: The human SorLA expression vector was provided by Anders Nykjaer, M.D., Ph.D., Aarhus University, Aarhus, Denmark (Jacobsen, L., et al., J. Biol. Chem. 276:22788-22796 (2001); Gliemann, J., et al., Biochem J. 381:203-212 (2004); GenBank Accession No. U60975), and the mouse SorCS1 expression vector in pCMV-Sport6 was obtained from Open Biosystems (GenBank Accession No. BC007486). […] A fragment of PGRN, termed PGRN-E in the literature, binds to sortilin with the same affinity as does full length PGRN (data not shown).

pull-down of Sort1 (anti-sortilin immunoblot) [1]: immunoreactive Sort1 band was detected
B1: GST-PGRN: glutathione S-transferase (GST) fused to the C-terminal segment of PGRN (amino acids 495 to the end), produced in E. coli (protein)
chain: CEKEVVSAQPATFLARSPHVGVKDVECGEGHFCHDNQTCCRDNRQGWACCPYRQGVCCADRRHCCPAGFRCAARGTKCLRREAPRWDAPLRDPALRQLL
modifications: left off: a dimerising Fc or GST
notes: glutathione S-transferase (GST) fused to the C-terminal segment of PGRN (amino acids 495 to the end), produced in E. coli

Kd [2]: ~20 nM
displacement of AP-PGRN binding [3]: displaced
displacement of AP-PGRN binding ([4]; 100 nM untagged competitor against 5 nM AP-PGRN): displaceable
binding to sortilin of mouse origin ([4]; data not shown): binds
binding to sortilin of human origin [7]: binds
B2: PGRN: progranulin protein; unlabeled/untagged competitor in binding assays, purified Flag-PGRN in Example 2 cultures (protein)
chain: TQCPDGQFCPVACCLDQGGANYSCCNPLLDTWPRITSHHLDGSCQTHGHCPAGYSCLLTVSGTSSCCPFSKGVSCGDGYHCCPQGFHCSADGKSCFQMSDNPLGAVQCPGSQFECPDSATCCIMVDGSWGCCPMPQASCCEDRVHCCPHGASCDLVHTRCVSPTGTHTLLKKFPAQKTNRAVSLPFSVVCPDAKTQCPDDSTCCELPTGKYGCCPMPNAICCSDHLHCCPQDTVCDLIQSKCLSKNYTTDLLTKLPGYPVKEVKCDMEVSCPEGYTCCRLNTGAWGCCPFAKAVCCEDHIHCCPAGFQCHTEKGTCEMGILQVPWMKKVIAPLRLPDPQILKSDTPCDDFTRCPTNNTCCKLNSGDWGCCPIPEAVCCSDNQHCCPQGFTCLAQGYCQKGDTMVAGLEKIPARQTTPLQIGDIGCDQHTSCPVGQTCCPSLKGSWACCQLPHAVCCEDRQHCCPAGYTCNVKARTCEKDVDFIQPPVLLTLGPKVGNVECGEGHFCHDNQTCCKDSAGVWACCPYLKGVCCRDGRHCCPGGFHCSARGTKCLRKKIPRWDMFLRDPVPRPLL
number of cells positive for cleaved caspase-3 [5]: less
cortical neurite outgrowth (βIII tubulin) [6]: No PGRN-induced change; also recorded: no significant difference
